Residue numbers refer to the chain shown, from its start. Numbers in names are those of the source. Where two headings read alike, the source gives them in different places. Bridges are numbered along the chain shown (N, C = ends). Where no end group is shown, it is not given here.
T1: K. pneumoniae LptAm (K. pneumoniae (ATCC 13883))
T1 chain: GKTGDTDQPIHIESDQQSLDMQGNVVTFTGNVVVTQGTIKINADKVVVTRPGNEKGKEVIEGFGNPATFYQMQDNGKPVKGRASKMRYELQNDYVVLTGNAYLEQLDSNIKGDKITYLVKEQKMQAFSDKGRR

T2: LptAm^Q62L (E. coli) (E. coli (ATCC 25922))
T2 chain: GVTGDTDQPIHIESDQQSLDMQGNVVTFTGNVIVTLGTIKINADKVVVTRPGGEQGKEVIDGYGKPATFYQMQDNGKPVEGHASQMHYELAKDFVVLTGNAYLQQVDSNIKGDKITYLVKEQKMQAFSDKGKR

T3: LptAm (E. coli), monomeric truncated variant of LptA (E. coli (ATCC 25922))
T3 chain: T2 chain with L36Q

B1: mLptA (E. coli), LptA(25-185) E39V M47A R76A (domain or fragment)
chain: GAFAVTGDTDQPIHIVSDQQSLDAQGNVVTFTGNVIVTQGTIKINADKVVVTAPGGEQGKEVIDGYGKPATFYQMQDNGKPVEGHASQMHYELAKDFVVLTGNAYLQQVDSNIKGDKITYLVKEQKMQAFSDKGKRVTTVLVPSQLQDKNNKGQTPAQKKGN

Experiments:
Test in all cases: FP
K. pneumoniae LptAm [1] = target: T1, K. pneumoniae LptAm
LptAm^Q62L (E. coli) [2] = target: T2, LptAm^Q62L (E. coli)
[3] = target: T3, LptAm (E. coli), monomeric truncated …
K. pneumoniae LptAm [4] = target: T1, K. pneumoniae LptAm
LptAm^Q62L (E. coli) [5] = target: T2, LptAm^Q62L (E. coli)
[6] = target: T3, LptAm (E. coli), monomeric truncated …
K. pneumoniae LptAm^Q62L = K. pneumoniae LptAm^Q62L (K. pneumoniae (ATCC 13883))
LptAm^Q62L (E. coli) [7] = target: T2, LptAm^Q62L (E. coli)
[8] = target: T3, LptAm (E. coli), monomeric truncated …

Binder	Ki (K. pneumoniae LptAm [1]) [nM]	Ki (LptAm^Q62L (E. coli) [2]) [nM]	Ki [3] [nM]	IC50 (K. pneumoniae LptAm [4]) [nM]	IC50 (LptAm^Q62L (E. coli) [5]) [nM]	IC50 [6] [nM]	IC50 (K. pneumoniae LptAm^Q62L) [nM]	Ki (K. pneumoniae LptAm^Q62L) [nM]	IC50 (LptAm^Q62L (E. coli) [7]) [nM]	IC50 [8] [nM]
KKPVPIIYCNRRTGKCQRM (disulfide 9-16 (inferred)) [peptide 1]	0.9	20.5	1.1	9.6	30.4	6.6	20.8	18.2		
B1									102	213
GSKKPVPIIYCNRRTGKCQRM [Thanatin]					50					
